{"source": "patent US9872887B2", "about": "“Extracellular matrix-binding synthetic peptidoglycans” (Purdue Research Foundation, priority 2013, dated 2018)", "test": "Rheological measurements on bovine vitreous", "settings": "trypsin treated vs no treatment and PBS buffer; FIG. 3A", "description": "The synthetic peptidoglycans according to the present disclosure can be tested as follows. Viscoelastic properties can be measured using a rheometer, for example the TAInstruments ARG2 rheometer. A cone and plate geometry or a parallel plate geometry can be used. Vitreous humor (e.g., bovine) can be placed within the geometry. The temperature can be controlled and frequency sweeps can be performed from ranges of about 0.1 Hz to about 100 Hz (e.g., 1 Hz) and storage, loss, and complex modulus can be measured at an oscillatory shear stress between about 0.1 Pa and about 10 Pa (e.g., 10 Pa). Temperature: 37° C."}
{"substance": "trypsin", "values": [{"measurement": "viscosity of bovine vitreous", "value": "lower viscosity"}]}
